Each block holds one molecule with its values, some of them ahead of it.
Assays:
[1] = biological target: NUDT16TI (NUDT16 Tudor-interacting), purified alone (UniProt Q96DE0); experiment: ITC
NUDT16TI K5S = NUDT16TI K5S (UniProt Q96DE0); experiment: ITC
[2] = biological target: NUDT16TI with deletion of His105 (UniProt Q96DE0); experiment: ITC
AUC = biological target: the molecule itself; experiment: AUC
[3] = biological target: TIRR (residues 6-211), untagged (human, UniProt Q9BRJ7 6-211); experiment: crystal structure
TIRR (residues 6-211), untagged, sequence (Q9BRJ7 6-211): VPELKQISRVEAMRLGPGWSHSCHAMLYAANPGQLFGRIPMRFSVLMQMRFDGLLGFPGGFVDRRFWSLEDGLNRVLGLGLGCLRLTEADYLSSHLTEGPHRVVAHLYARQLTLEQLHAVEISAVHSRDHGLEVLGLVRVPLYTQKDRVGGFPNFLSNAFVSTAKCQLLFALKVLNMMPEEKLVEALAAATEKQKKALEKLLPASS

Kd [1]: 1200 nM | fold increase of Kd with excess IMP against no IMP [1]: 3 fold | fold decrease in affinity against NUDT16TI (NUDT16TI K5S): 14 fold | fold decrease in affinity against NUDT16TI [2]: 38 fold
Molecule: 53BP1-Tudor (residues 1484-1603) (from UniProt Q12888 1484-1603) (domain or fragment)

B1: 53BP1 (residues 1204-1603) (domain or fragment, human, UniProt Q12888 1204-1603, looked up)
chain: EKPVSAPGDDTESLHSQGEEEFDMPQPPHGHVLHRHMRTIREVRTLVTRVITDVYYVDGTEVERKVTEETEEPIVECQECETEVSPSQTGGSSGDLGDISSFSSKASSLHRTSSGTSLSAMHSSGSSGKGAGPLRGKTSGTEPADFALPSSRGGPGKLSPRKGVSQTGTPVCEEDGDAGLGIRQGGKAPVTPRGRGRRGRPPSRTTGTRETAVPGPLGIEDISPNLSPDDKSFSRVVPRVPDSTRRTDVGAGALRRSDSPEIPFQAAAGPSDGLDASSPGNSFVGLRVVAKWSSNGYFYSGKITRDVGAGKYKLLFDDGYECDVLGKDILLCDPIPLDTEVTALSEDEYFSAGVVKGHRKESGELYYSIEKEGQRKWYKRMAVILSLEQGNRLREQYGLG
stoichiometry N (AUC): 2

binding result [3]: binds
B2: 53BP1-Tudor (residues 1484-1603) (domain or fragment, human, UniProt Q12888 1484-1603, looked up)
chain: NSFVGLRVVAKWSSNGYFYSGKITRDVGAGKYKLLFDDGYECDVLGKDILLCDPIPLDTEVTALSEDEYFSAGVVKGHRKESGELYYSIEKEGQRKWYKRMAVILSLEQGNRLREQYGLG

Reference: paper PMC6045459 (Nature structural & molecular biology, 2018)
